PMC9728937

Target: FgSnt1^1-744-GST (Fusarium graminearum)
Experiment: ITC
Details: enzyme

Cpk1-HIS
Kd: 248 nM
